Reference: patent US20190269788A1

Legend:
[1] = biological target: soluble recombinant human IGF1R hetero-tetramere with C-terminal 10-His tag (R&D Systems catalogue number 305-GR-50) (human) (UniProt P08069); test: SPR Biacore X100, Ln(2)/koff
[2] = biological target: soluble recombinant human IGF1R hetero-tetramere with C-terminal 10-His tag (R&D Systems catalogue number 305-GR-50) (human) (UniProt P08069); test: SPR Biacore X100, His-captured h-IGF1R around 600 RU, mean of four experiments

half-life of the complex [1]: 2 to 3 h
Kd [2]: 0.06 nM
B1: hz208F2 VH3/VL3 (antibody, human IgG1, kappa, V domains shown)
VH: QVQLVQSGAEVKKPGASVKMSCKASGYTFTSYYIYWVKQAPGQGLEWLGWIWPGDGSTKYNEKFQGRVTLTADKSSNTAYMFLSSLRSEDTAVYFCASPMITPNYAMDYWGQGTLVTVSS
VL: DIQMTQSPSSLSASVGDRVTISCRASQDISKYLNWYQQKPGKAPKLLIYYTSRLHSGVPSRFSGRGSGTDYSLTISNLQPEDFATYFCQQGSTLPYTFGGGTKVEIKR
